From publication doi:10.1101/2024.01.22.576614
Like-named read-outs stand apart in the source and are kept apart here.

Tests used:
Experiment in all cases: two-hybrid
[1] = target: Leu zipper (Zip)
[2] = target: Leu zipper (Zip); remark: listed apart in the source
[3] = target: cAMP-binding transcriptional regulator Clr (Sinorhizobium meliloti)

Chain of Leu zipper (Zip) (P03069 whole entry): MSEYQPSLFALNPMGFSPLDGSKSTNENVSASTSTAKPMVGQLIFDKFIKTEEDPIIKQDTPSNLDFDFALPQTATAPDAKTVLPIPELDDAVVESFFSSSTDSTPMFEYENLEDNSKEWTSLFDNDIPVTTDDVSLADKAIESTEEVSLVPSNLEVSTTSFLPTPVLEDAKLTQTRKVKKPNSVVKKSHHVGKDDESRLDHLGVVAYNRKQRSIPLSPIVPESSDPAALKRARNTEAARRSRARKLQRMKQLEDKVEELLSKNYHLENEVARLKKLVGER

Row | Substance | BACTH β-galactosidase activity [1] [Miller-Units] | BACTH β-galactosidase activity [2] [Miller-Units] | BACTH β-galactosidase activity [3] [MU]
1 | Leu zipper (Zip) (domain or fragment) | 1640 | 1370 | 
2 | LysR-type transcriptional regulator Smc01817 (natural protein) |  |  | 460
